B1: MipZ (wild type), hexahistidine-tagged [Caulobacter crescentus] / itself (parent)
chain: MAETRVIVVGNEKGGAGKSTIAVHLVTALLYGGAKVAVIDLDLRQRTSARFFENRRAWLDNKKIELPEPLALNLSDNDVALAERPEEEQVAGFEAAFARAMAECDFILIDTPGGDSAITRMAHGRADLVVTPMNDSFVDFDMLGTVDPVTLELTKPSLYSLTVWEGRKQRALSGQRQAMDWVVLRNRLATTEARNRKRLEDRLNALAKRVGFRIGPGLRDRVIYRELFPFGLTIADLSPQVRPVPVSLQHLAARQELRALMHSLGLSAYSGETMLAAQ

Variants of: B1
Assay: SPR
Settings: with itself; 3500 RU immobilized protein; 0.5 μM soluble protein; + ATP; parent: 370; read off a plot

response [RU] | Variant
910 | MAETRVIVVGNEKGGAGKSTIAVHLVTALLYGGAKVAVIDLALRQRTSARFFENRRAWLDNKKIELPEPLALNLSDNDVALAERPEEEQVAGFEAAFARAMAECDFILIDTPGGDSAITRMAHGRADLVVTPMNDSFVDFDMLGTVDPVTLELTKPSLYSLTVWEGRKQRALSGQRQAMDWVVLRNRLATTEARNRKRLEDRLNALAKRVGFRIGPGLRDRVIYRELFPFGLTIADLSPQVRPVPVSLQHLAARQELRALMHSLGLSAYSGETMLAAQ [chain 1 D42A]

Same assay, conditions: with itself; 3500 RU immobilized protein; 0.5 μM soluble protein; ATP in the binding phase; wash with buffer lacking protein and nucleotides

koff [min⁻¹] | Variant
0.067 | MAETRVIVVGNEKGGAGKSTIAVHLVTALLYGGAKVAVIDLALRQRTSARFFENRRAWLDNKKIELPEPLALNLSDNDVALAERPEEEQVAGFEAAFARAMAECDFILIDTPGGDSAITRMAHGRADLVVTPMNDSFVDFDMLGTVDPVTLELTKPSLYSLTVWEGRKQRALSGQRQAMDWVVLRNRLATTEARNRKRLEDRLNALAKRVGFRIGPGLRDRVIYRELFPFGLTIADLSPQVRPVPVSLQHLAARQELRALMHSLGLSAYSGETMLAAQ [chain 1 D42A]
